Results from patent US10532083B2, “Methods for inducing differentiation or conversion of white adipocytes and/or preadipocytes to brown adipocites using FGF8” (Technische Universität München, priority 2014, dated 2020).

Legend:
[1] = system: epididymal white adipose tissue; format: in vivo, adult male 129Sv/ev mice
Description: Implantation of Ffg8b releasing pellets into the visceral, epididymal white adipose tissue depot leads to recruitment of brown adipocytes. A—Representative photographs centered on the implantation site of three control pellets (upper panels) and three Fgf8b pellets (lower panels). The epididymal fat depot is discernible in light gray shades surrounded by darker non-adipose tissues. The area of visible browning is marked by a dotted line. B—To highlight “visual browning” in this gray-scale images we digitally removed all pixels with a colour saturation of more than 162 (on a scale of 0-255). Here, white areas correspond to brown colour on a background of whitish adipose tissue. C—The mRNA abundance of several brown adipocyte marker genes in the entire depot. Ucp1 and Cox7a1 mRNA are increased by Fgf8b treatment but not by the placebo pellet. Physiological data of animals implanted with drug release pellets. A—The absolute body mass of mice was not altered by Fgf8b. […] C—The masses of the implanted epididymal fat depot and the contralateral non-implanted depot were not different. Interscapular brown adipose tissue was not different in placebo and Fgf8b treated animals. […] E—Plasma metabolites of carbohydrate and lipid metabolisms were not affected by Fgf8b treatment (GLU—glucose, CHOL—total cholesterol, nHDLc—non-HDL cholesterol, HDL—high density lipoproteins, LDL—low density lipoproteins, VLDL—very low density lipoproteins, TRIG—triglycerides). F—Liver enzymes in the plasma were not altered by Fgf8b treatment. Pellets 1.5 mm in diameter were fabricated from a biodegradable matrix to locally release 100 ng FGF8b per day for 21 days (Innovative Research of America, Sarasota, Fla., USA). […] To implant a pellet into the subcutaneous adipose tissue, a mouse of the 129Sv/ev strain was anesthetized, abdominal fur removed and the pellet pushed into the depot through a short cut in the skin. To target the visceral adipose tissue, the pellet was introduced through a small cut each into skin and abdominal wall and placed between lobes of epididymal adipose tissue. Mice were kept in a specific pathogen free barrier facility at room temperature in a 12:12 hour light:dark cycle with free access to food and water. Three weeks after implantation mice were killed by carbon dioxide exposure and dissected. Blood parameters were analyzed with an automated clinical chemistry analyzer (Piccolo xpress system, Abaxis, Darmstadt, Germany). All animal experiments were performed according to the German animal welfare law (permission no. 55.2-1-54-2532-174-11). To investigate the ability of FGF8b to transform white adipose tissue into brown adipose tissue in vivo, we obtained pellets that release 100 ng FGF8b per day and placebo pellets. One pellet each was implanted into the epididymal white adipose tissue of adult male 129Sv/ev mice. After three weeks mice were sacrificed and the tissue analyzed. […] In summary, we found no evidence of any gross metabolic difference between treatment groups.

inguinal adipose tissue = test: FGF8b releasing pellet implanted into inguinal (subcutaneous) adipose tissue in vivo; parameters: species or system 129Sv/ev mice; conditions: FGF8b pellets implanted into inguinal adipose tissue
Method: Pellets 1.5 mm in diameter were fabricated from a biodegradable matrix to locally release 100 ng FGF8b per day for 21 days (Innovative Research of America, Sarasota, Fla., USA). […] To implant a pellet into the subcutaneous adipose tissue, a mouse of the 129Sv/ev strain was anesthetized, abdominal fur removed and the pellet pushed into the depot through a short cut in the skin. To target the visceral adipose tissue, the pellet was introduced through a small cut each into skin and abdominal wall and placed between lobes of epididymal adipose tissue. Mice were kept in a specific pathogen free barrier facility at room temperature in a 12:12 hour light:dark cycle with free access to food and water. Three weeks after implantation mice were killed by carbon dioxide exposure and dissected. Blood parameters were analyzed with an automated clinical chemistry analyzer (Piccolo xpress system, Abaxis, Darmstadt, Germany). All animal experiments were performed according to the German animal welfare law (permission no. 55.2-1-54-2532-174-11). By visual inspection, the implantation site of FGF8b pellets and the surrounding adipose tissue was of a brown colour, while both the non-implanted contralateral depot and the implantation site of placebo pellets remained characteristically white (FIG. 6A). […]

[2] = system: visceral, epididymal white adipocytes; test: Ucp1 / brown adipocyte marker mRNA (qPCR) in immortalized epididymal white adipocytes treated with FGFs; format: cell-based, murine
[3] = RNA preparation of complete unilateral epididymal depot, 100 ng per day, three weeks, vs placebo pellet
[4] = continuous treatment during differentiation, fully differentiated cells (FIG. 2B)
[5] = epididymal cells treated 48 hours during proliferation prior to induction
[6] = epididymal cells treated 48 hours during proliferation prior to induction, sampled acute to d6 p.i.

B1: FGF8b: murine recombinant paracrine fibroblast growth factor 8, major spliceform b (R&D Systems); amino acid sequence identical to human, SEQ ID NO:16/20 (protein)
chain: MGSPRSALSCLLLHLLVLCLQAQVTVQSSPNFTQHVREQSLVTDQLSRRLIRTYQLYSRTSGKHVQVLANKRINAMAEDGDPFAKLIVETDTFGSRVRVRGAETGLYICMNKKGKLIAKSNGKGKDCVFTEIVLENNYTALQNAKYEGWYMAFTRKGRPRKGSKTRQHQREVHFMKRLPRGHHTTEQSLRFEFLNYPPFTRSLRGSQRTWAPEPR
modifications: human FGF8b
Relationship between depot mass and body mass ([1]; 100 ng per day, three weeks, vs placebo (FIG. 7D)): not influenced
Depot mass of implanted and non-implanted epididymal fat and of interscapular brown adipose tissue ([1]; 100 ng per day, three weeks, vs placebo group): not different between groups
Final body weight ([1]; 100 ng per day, three weeks, vs placebo group, lean healthy mice): comparable
Plasma metabolites of carbohydrate and lipid metabolisms (GLU, CHOL, nHDLc, HDL, LDL, VLDL, TRIG) ([1]; 100 ng per day, three weeks, vs placebo, Piccolo xpress analyzer): not affected
Change in body weight during the 3 weeks of treatment ([1]; 100 ng per day, vs placebo group): comparable
Cox7a1 mRNA abundance in the entire depot [1, 3]: increased
Ucp1 mRNA abundance in the entire depot [1, 3]: increased
Systemic adverse reaction ([1]; mouse, in vivo): no evidence for any systemic adverse reaction
Extent of browned area away from the implanted pellet ([1]; one pellet releasing 100 ng FGF8b per day, three weeks): approximately 3 mm
Colour of implantation site and surrounding adipose tissue by visual inspection ([1]; one pellet releasing 100 ng FGF8b per day, three weeks, placebo site and contralateral depot remained white): brown colour
Visual browning and expression of brown adipocyte marker genes (inguinal adipose tissue): did not lead to visual browning or increased expression of brown adipocyte marker genes
Cox7a1 mRNA [2, 4]: not or only slightly increased
Elovl3 mRNA [2, 4]: not or only slightly increased
Cidea mRNA abundance ([2]; epididymal adipocytes, treatment during differentiation, greater effect size than in inguinal): increased
Cox7a1 mRNA abundance in mature adipocytes [2, 5]: increased
Foxc2 mRNA abundance, acute response [2, 5]: do not acutely respond
Prdm16 mRNA abundance, timecourse [2, 5]: transient increase in abundance directly following induction
pRb mRNA abundance, acute response [2, 5]: do not acutely respond
Cidea mRNA abundance, timecourse [2, 6]: already increasing on day 4 p.i.
Elovl3 mRNA abundance, timecourse [2, 6]: already increasing on day 4 p.i.
Ucp1 mRNA abundance, timecourse ([2]; epididymal cells treated 48 hours during proliferation prior to induction, sampled acute, d1, d2, d4, d6 p.i., normalized to untreated): increased 6 days after induction for the first time
Pgc1a mRNA abundance after complete differentiation ([2]; epididymal cells treated 48 hours during proliferation, day 6 p.i.): increased Pgc1a mRNA abundance
Pgc1a mRNA abundance, acute ([2]; epididymal cells treated 48 hours during proliferation, sample immediately after treatment): acutely downregulated
Final Ucp1 mRNA abundance after full differentiation (responsiveness) ([2]; epididymal cells, comparably late treatment (fully differentiated state)): respond
Final Ucp1 mRNA abundance after full differentiation ([2]; epididymal cells, treatment during the entire differentiation period): strongest Ucp1 induction
